One block for each molecule: values may come before it. Ends that are not written are not given here.
How the values were obtained:
FGF2 [1] = target: T1, FGF2 (Homo sapiens, UniProt P09038); experiment: BIAcore binding assay, FGF2 binding to PTX3 immobilized to a sensorchip; parameters: made in house; host or cells: FGF2: E. coli; PTX3: Chinese hamster ovary cells; conditions: for inhibition of FGF2 binding to PTX3 immobilized to a BIAcore sensorchip / IC50: FGF2 0.8 μM; for inhibition of FGF2 binding to PTX3 immobilized to a BIAcore sensorchip: increasing peptide concentrations; for IC50: antagonist in mobile phase, read-out: ID50, inhibition of FGF2 binding to the PTX3 surface
Description: A BIAcore X apparatus (BIAcore Inc, Piscataway, N.J.) was used. Surface plasmon resonance was exploited to measure changes in refractive index caused by the ability of FGF2 to bind to PTX3 immobilized to a BIAcore sensorchip. To this purpose, PTX3 (2.2 μM) was allowed to react with a flow cell of a CM4 sensorchip that was previously activated with 50 μl of a mixture of 0.2 M N-ethyl-N′-(3-dimethylaminopropyl)-carbodiimide hydrochloride and 0.05 M N-hydroxysuccinimide. These experimental conditions allowed the immobilization of 5,000 resonance units (RUs), corresponding to approximately 0.1 pmoles of PTX3. Similar results were obtained for immobilization of gelatin, here used as a negative control and for blank subtraction. Increasing concentrations of FGF2 with or without synthetic PTX3 peptides were then injected in dilution buffer (PBS plus 0.005% surfactant P20, 5.0 μg/mL CaCl2 and MgCl2) over the PTX3 surface for 4 minutes (to allow their association with immobilized PTX3) and then washed until dissociation was observed.
Target sequence in this assay (P09038 134-288): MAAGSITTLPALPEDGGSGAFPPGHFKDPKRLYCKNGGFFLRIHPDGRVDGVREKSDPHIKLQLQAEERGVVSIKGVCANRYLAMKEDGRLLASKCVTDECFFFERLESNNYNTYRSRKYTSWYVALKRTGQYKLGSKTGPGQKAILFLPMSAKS

chick embryo CAM = experiment: Chicken embryo chorioallantoic membrane (CAM) assay, FGF2-induced neovascularization; type: in vivo; conditions: for macroscopic vessels converging towards the implant: FGF2 16 pmoles/embryo, with or without 3.0 nmoles of peptide, 72 hours
Description: Alginate beads (5 μl) containing vehicle or 16 pmoles of FGF2 with or without synthetic PTX3 peptides were prepared as described 24 and placed on top of the CAM of fertilized White Leghorn chicken eggs at day 11 of incubation (10 eggs per experimental group). After 72 hours, blood vessels converging towards the implant were counted by two observers in a double-blind fashion under a stereomicroscope (STEMI-SR, x2/0.12; Zeiss).

GM7373 cells = experiment: Cell proliferation assay, endothelial GM7373 cells; type: cell-based, bovine; conditions: for inhibition of mitogenic activity exerted by FGF2 / inhibition of FGF2 mitogenic activity by conditioned medium of infected MAE cells: FGF2 0.55 nM; for inhibition of mitogenic activity exerted by FGF2: peptides 66 μM, PTX3 220 nM; for inhibition of FGF2 mitogenic activity by conditioned medium of infected MAE cells: 24 h
Description: Cell proliferation assay on endothelial cells was performed as described^22. Briefly, GM7373 or MAE cells were seeded in 96-well dishes at 75,000 cells/cm^2 or 25,000 cells/cm^2, respectively. After 16 h, cells were incubated in fresh medium containing 0.4% FCS plus FGF2 (0.55 nM) in the absence or in the presence of different antagonists. After 24 or 48 h, respectively, cells were trypsinized and counted in a Burker chamber.

FGF2 [2] = target: T1, FGF2; experiment: Solid phase binding assay, FGF2 binding to immobilized synthetic PTX3 peptides; parameters: made in house; host or cells: E. coli; conditions: peptides 200 μg/well, FGF2 80 nM
Description: (§1) ELISA microplates were incubated for 16 hours at 4° C. with 100 μl/well of 100 mM NaHCO3, pH 9.6 (coating buffer) containing FGF2 (270 nM). Then, wells were overcoated for 2 hours at room temperature with 5% dry milk in coating buffer. […] Then, wells were sequentially incubated for 1 hour at 37° C. with a rabbit polyclonal anti-PTX3 antibody (1:2000 dilution) that recognizes both PTX3 fragments with similar efficiency in Western blot and ELISA, an anti-rabbit biotinylated antibody (1:2000), and 100 μl of streptavidin-horseredish peroxidase (1:5000, Amersham) for 1 hour at room temperature. Then, 100 μl/well of the chromogen substrate 2,29-azinobis(3-ethylbenzthiazolinesulfonic acid) were added. Absorbance values were read at 405 nm in an automatic ELISA reader. In some experiments, 100-μl aliquots of PBS containing biotin-labeled PTX3 (bPTX3) (22 nM) were incubated for 30 minutes at 37° C. onto FGF2-coated wells with or without competitors. Then, wells were washed, and the amount of bound bPTX3 was evaluated as described^17. Alternatively, synthetic PTX3 peptides were immobilized on ELISA microplate wells (200 μg/well) as described above. Then, FGF2 (80 nM) was added and FGF2 bound to immobilized peptides was assessed by 1 hour incubation at 37° C. with a rabbit polyclonal anti-FGF2 antibody (1:7000) followed by immunocomplex detection as described above.
Target sequence in this assay (P09038 134-288): as above

FGF2 [3] = target: T1, FGF2; conditions: cited from earlier work
Target sequence in this assay (P09038 143-288): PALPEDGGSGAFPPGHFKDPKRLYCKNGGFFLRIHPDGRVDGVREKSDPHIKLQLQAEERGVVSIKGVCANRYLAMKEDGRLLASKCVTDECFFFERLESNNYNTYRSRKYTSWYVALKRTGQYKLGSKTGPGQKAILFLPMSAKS

FGF2/PTX3 interaction = target: T2, FGF2/PTX3 interaction (Homo sapiens, UniProt P09038+P26022); experiment: Solid phase binding assay, biotinylated PTX3 (bPTX3) binding to immobilized FGF2 with competitors; conditions: bPTX3 22 nM, competitor 10 fold-molar excess (220 nM)
T2 construct: biotinylated PTX3 (bPTX3, 22 nM) in the absence or in the presence of a 10 fold-molar excess of full length PTX3; made in house; host or cells: FGF2: E. coli; PTX3: Chinese hamster ovary cells
Description: ELISA microplates were incubated for 16 hours at 4° C. with 100 μl/well of 100 mM NaHCO3, pH 9.6 (coating buffer) containing FGF2 (270 nM). Then, wells were overcoated for 2 hours at room temperature with 5% dry milk in coating buffer. […] Then, 100 μl/well of the chromogen substrate 2,29-azinobis(3-ethylbenzthiazolinesulfonic acid) were added. Absorbance values were read at 405 nm in an automatic ELISA reader. In some experiments, 100-μl aliquots of PBS containing biotin-labeled PTX3 (bPTX3) (22 nM) were incubated for 30 minutes at 37° C. onto FGF2-coated wells with or without competitors. Then, wells were washed, and the amount of bound bPTX3 was evaluated as described^17. Alternatively, synthetic PTX3 peptides were immobilized on ELISA microplate wells (200 μg/well) as described above. Then, FGF2 (80 nM) was added and FGF2 bound to immobilized peptides was assessed by 1 hour incubation at 37° C. with a rabbit polyclonal anti-FGF2 antibody (1:7000) followed by immunocomplex detection as described above.

FGF2 [4] = target: T1, FGF2; experiment: Solid phase binding assay, PTX3 proteins on FGF2-coated wells; parameters: made in house; host or cells: E. coli; conditions: proteins at 44 nM, 30 minutes at 37° C.
Description: as §1
Target sequence in this assay (P09038 134-288): as the sequence (P09038 134-288) above

MAE cells = experiment: Cell proliferation assay, retrovirus infected MAE cells stimulated with FGF2; type: cell-based, murine; conditions: retroviral overexpression in MAE cells, FGF2 0.55 nM, 48 h
From the text: The cDNAs encoding for human PTX3 and for the enhanced green fluorescent protein (EGFP) were obtained as described^17. The cDNAs encoding for the N-terminal fragment PTX3(1-178) (Nterm-PTX3) and the C-terminal fragment PTX3(179-381) fused to the leader sequence for secretion PTX3(1-17) (sCterm-PTX3) were generated from pLX-PTX3^17 by PCR and standard cloning techniques. All cDNAs were cloned in the pBABE retroviral vector thus generating pBABE-PTX3, pBABE-Nterm-PTX3, pBABE-sCterm-PTX3, and pBABE-EGFP that were used to transfect the EcoPack2-293 packaging cells in the presence of Lipofectamin 17. Transduced cells were selected with puromycin (1 μg/ml, Sigma) for 2 weeks. Clones with a viral titer higher than […] were used for further experimentation. Confluent cultures of MAE cells were then incubated for 24 hours with the conditioned medium from pBABE-PTX3, pBABE-Nterm-PTX3, PBABE-sCterm-PTX3, or pBABE-EGFP packaging cells in the presence of polybrene (8 μg/ml, Sigma). Infected cell populations were selected for 7 days with puromycin. […] To assess the levels of transgene protein expression and release by infected cells, cell cultures were grown under serum-free conditions for 2 days. […]
Cell proliferation assay on endothelial cells was performed as described^22. […] After 24 or 48 h, respectively, cells were trypsinized and counted in a Burker chamber.

T2 sequence (P09038 134-288): as above
T2 sequence (P26022 18-381): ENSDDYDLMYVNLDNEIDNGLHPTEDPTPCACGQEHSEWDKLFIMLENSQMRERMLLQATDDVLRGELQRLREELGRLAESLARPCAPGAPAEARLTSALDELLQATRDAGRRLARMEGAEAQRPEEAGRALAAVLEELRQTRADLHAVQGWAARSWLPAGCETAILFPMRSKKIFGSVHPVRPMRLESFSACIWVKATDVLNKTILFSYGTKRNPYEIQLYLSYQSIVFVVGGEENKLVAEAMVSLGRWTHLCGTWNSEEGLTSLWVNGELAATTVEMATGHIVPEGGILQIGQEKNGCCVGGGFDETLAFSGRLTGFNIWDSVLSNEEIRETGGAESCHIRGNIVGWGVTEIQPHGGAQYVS

Molecule: FGF2: Human recombinant FGF2 expressed in E. coli; heparin-binding growth factor, the angiogenic stimulus
- macroscopic vessels converging towards the implant (chick embryo CAM): 44±7 vessels/embryo

Molecule: DNEIDNGLHPTEDPTPCDCGQEHSEWDKLF [PTX3(31-60)]
- inhibition of FGF2 binding to PTX3 immobilized to a BIAcore sensorchip (FGF2 [1]): no inhibitory effect
- inhibition of mitogenic activity exerted by FGF2 (GM7373 cells): ineffective
- binding of free FGF2 to immobilized peptide or PTX3 (FGF2 [2]): not

Molecule: CRP: classical short-pentraxin C-reactive protein
- FGF2 binding (FGF2 [3]): inefficient FGF2 binders

Molecule: ARPCA [PTX3(100-104)]
- inhibition of FGF2 binding to PTX3 immobilized to a BIAcore sensorchip (FGF2 [1]): significant binding to FGF2
- inhibition of mitogenic activity exerted by FGF2 (GM7373 cells): inhibits

Molecule: ARPCAPGAPAE [PTX3(100-110)]
- inhibition of FGF2 binding to PTX3 immobilized to a BIAcore sensorchip (FGF2 [1]): did not prevent the binding

Molecule: EGLRGELRGSREAELLRQAARAPACPLPE [scrambled PTX3(82-110), reference compound]
- IC50 (FGF2 [1]): > 3000 µM

Molecule: ESLARPCA [PTX3(97-104)]
- inhibition of FGF2 binding to PTX3 immobilized to a BIAcore sensorchip (FGF2 [1]): did not prevent the binding

Molecule: RGELQRLREELGRLAESLAR [PTX3(82-101)]
- inhibition of FGF2 binding to PTX3 immobilized to a BIAcore sensorchip (FGF2 [1]): ineffective
- inhibition of mitogenic activity exerted by FGF2 (GM7373 cells): not
- binding of free FGF2 to immobilized peptide or PTX3 (FGF2 [2]): without interacting

Molecule: DKLFIMLENSQMRERMLLQATDDVLRGEL [PTX3(57-85)]
- inhibition of FGF2 binding to PTX3 immobilized to a BIAcore sensorchip (FGF2 [1]): no inhibitory effect
- inhibition of mitogenic activity exerted by FGF2 (GM7373 cells): ineffective
- binding of free FGF2 to immobilized peptide or PTX3 (FGF2 [2]): not

B1: sCterm-PTX3: C-terminal fragment PTX3(179-381) fused to the leader sequence for secretion PTX3(1-17) (protein)
chain: CETAILFPMRSKKIFGSVHPVRPMRLESFSACIWVKATDVLNKTILFSYGTKRNPYEIQLYLSYQSIVFVVGGEENKLVAEAMVSLGRWTHLCGTWNSEEGLTSLWVNGELAATTVEMATGHIVPEGGILQIGQEKNGCCVGGGFDETLAFSGRLTGFNIWDSVLSNEEIRETGGAESCHIRGNIVGWGVTEIQPHGGAQYVS
- inhibition of FGF2 mitogenic activity by conditioned medium of infected MAE cells (GM7373 cells): ineffective
- capacity of infected cells to proliferate in response to exogenous FGF2 (MAE cells): No inhibition

Further lines, with some results ahead:

- inhibition of FGF2 binding to PTX3 immobilized to a BIAcore sensorchip (FGF2 [1]): ineffective
- binding of free FGF2 to immobilized peptide or PTX3 (FGF2 [2]): without interacting
Molecule: RGELQRLREELGRLA [PTX3(82-96)]
- effect on angiogenic response triggered by FGF2 (chick embryo CAM; FGF2 16 pmoles): no effect
- inhibition of mitogenic activity exerted by FGF2 (GM7373 cells): not

- inhibition of FGF2 binding to PTX3 immobilized to a BIAcore sensorchip (FGF2 [1]): significant binding to FGF2
Molecule: ESLARPCAPGA [PTX3(97-107)]

- FGF2 bound at the end of the injection phase (FGF2 [1]; FGF2 0.8 μM over immobilized PTX3): 350-400 RU
- kinetic dissociation constant (koff) of FGF2/PTX3 interaction (FGF2 [1]; FGF2 0.1 to 1.1 μM over immobilized PTX3): 6e-05 s⁻¹
- prevention of bPTX3 binding to immobilized FGF2 (FGF2/PTX3 interaction; listed as full length PTX3): prevented the binding
- binding of free FGF2 to immobilized peptide or PTX3 (FGF2 [2]): binds
- binding to FGF2 immobilized to non-tissue culture plastic (FGF2 [4]): showed the capacity to bind FGF2
Molecule: PTX3: Human recombinant PTX3 (swiss-prot P26022) expressed in Chinese hamster ovary cells; long-pentraxin
- prevention of bPTX3 binding to immobilized FGF2 (FGF2/PTX3 interaction): prevents the capacity of bPTX3 to bind immobilized FGF2
- inhibition of FGF2 mitogenic activity by conditioned medium of infected MAE cells (GM7373 cells): significant inhibition
- inhibition of mitogenic activity exerted by FGF2 (GM7373 cells): inhibit
- capacity of infected cells to proliferate in response to exogenous FGF2 (MAE cells): significant decrease

- inhibition of FGF2 binding to PTX3 immobilized to a BIAcore sensorchip (FGF2 [1]): no inhibitory effect
- binding of free FGF2 to immobilized peptide or PTX3 (FGF2 [2]): limited interaction
Molecule: APAEARLTSALDELLQATRDAGRRLA [PTX3(107-132)]
- inhibition of mitogenic activity exerted by FGF2 (GM7373 cells): ineffective

- IC50 (FGF2 [1]): 30 µM
- potency relative to free full length PTX3 (FGF2 [1]; inhibition of FGF2 binding to PTX3 surface): 30 times lower
- binding of free FGF2 to immobilized peptide or PTX3 (FGF2 [2]): binds
Molecule: RGELQRLREELGRLAESLARPCAPGAPAE [PTX3(82-110)]
- macroscopic vessels converging towards the implant (chick embryo CAM): 28±5 vessels/embryo
- inhibition of mitogenic activity exerted by FGF2 (GM7373 cells): inhibit
- IC50 (GM7373 cells; dose-response, read-out: ID50, FGF2-antagonist activity on GM7373 cell proliferation): 30 µM

- binding of free FGF2 to immobilized peptide or PTX3 (FGF2 [2]): binds
Molecule: ESLARPCAPGAPAE [PTX3(97-110)]
- inhibition of FGF2 binding to PTX3 immobilized to a BIAcore sensorchip (FGF2 [1]): preventing its interaction with PTX3 immobilized to a BIAcore sensorchip
- inhibition in the angiogenic response triggered by FGF2 (chick embryo CAM; 80 nmoles of peptide, FGF2 16 pmoles): 50%
- inhibition of mitogenic activity exerted by FGF2 (GM7373 cells): inhibits

- binding to FGF2 immobilized to non-tissue culture plastic (FGF2 [4]): No interaction
B2: Cterm-PTX3: recombinant 6×His-tagged C-terminal fragment of PTX3 from E. coli (protein)
chain: CETAILFPMRSKKIFGSVHPVRPMRLESFSACIWVKATDVLNKTILFSYGTKRNPYEIQLYLSYQSIVFVVGGEENKLVAEAMVSLGRWTHLCGTWNSEEGLTSLWVNGELAATTVEMATGHIVPEGGILQIGQEKNGCCVGGGFDETLAFSGRLTGFNIWDSVLSNEEIRETGGAESCHIRGNIVGWGVTEIQPHGGAQYVSHHHHHH
